Columns and labels:
[1] = molecular target: T1, human VEGFR2, over-expressed on HEK293 cells (human, UniProt P35968 20-1356); experiment: flow cytometry, single concentration (Table 21)
T1 construct: whole, on cells; also called huVEGFR2; hVEGFR2

[2] = molecular target: T2, human VEGFR1, full length, over-expressed on cells (human, UniProt P17948 27-1338); experiment: cell binding assay (column head prints IC50)
T2 construct: on CHO-K1 or HEK cells; also called hVEGFR1; CHOK1/ human VEGFR1

[3] = molecular target: T3, Recombinant human VEGFR1-Fc (R&D Systems) (human, UniProt P17948 27-687, limits assumed); experiment: biochemical ligand blocking assay; ligand and receptor form not given
T3 construct: bought; not shown: Fc part of the bought fusion, not described
Summary of the method: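 In a biochemical electro-chemiluminescence ligand blocking assay, Protein A/G-coated MSD plates captured recombinant VEGFR1-Fc, which was pre-incubated with half-log dilutions of each antibody for 30 minutes. Biotinylated ligand was added next and detected with Sulfo-tagged streptavidin on an MSD imager. The readings were used to calculate IC50.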

[4] = molecular target: T4, ISLR (BC022478) (human, UniProt O14498 19-428); experiment: Retrogenix cell microarray, fixed HEK293 cells, 2 ug/mL antibody
T4 construct: whole, on cells; also called Immunoglobulin superfamily containing leucine-rich repeat protein
T4 sequence (looked up): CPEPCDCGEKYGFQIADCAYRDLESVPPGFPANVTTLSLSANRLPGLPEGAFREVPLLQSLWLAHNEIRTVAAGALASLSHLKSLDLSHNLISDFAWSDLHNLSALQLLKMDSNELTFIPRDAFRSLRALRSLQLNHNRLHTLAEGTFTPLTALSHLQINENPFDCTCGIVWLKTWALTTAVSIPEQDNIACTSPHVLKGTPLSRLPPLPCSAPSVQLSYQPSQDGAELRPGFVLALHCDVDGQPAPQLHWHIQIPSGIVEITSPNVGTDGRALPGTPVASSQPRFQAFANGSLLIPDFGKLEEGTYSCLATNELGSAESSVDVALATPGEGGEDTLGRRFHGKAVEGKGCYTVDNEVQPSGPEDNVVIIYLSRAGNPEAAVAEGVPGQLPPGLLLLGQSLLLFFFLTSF
Protocol: This human cell microarray methodology has been previously described in the literature (Freeth, J. et al, SLAS Discovery, 25 (2), 223-230, 2020). Primary screening was performed on slides arrayed with fixed HEK293 cells with each spot of HEK293 cells expressing either a unique protein from the cell surface-ome, a cell surface tethered human secreted protein, or a heterodimeric human cell surface receptor. In total, 5,528 unique gene products were represented in this primary screen (4,103 human plasma membrane proteins (+some untethered secreted proteins)+1,425 cell surface tethered human secreted proteins). Briefly, slides containing fixed transfected HEK293 cells were overlaid with a solution of test antibody (2 μg/mL), incubated, and washed. Binding was assessed using AlexaFluor647-conjugated anti-human IgG Fc detection antibody and fluorescence quantitation on ImageQuant. […] Located in the ER, off-target binding to CRELD2 was of less concern. Nectin-1, FGFR2, and ISLR, on the other hand, display broad tissue expression profiles. Cross-reactivity to these proteins is undesirable because binding to these targets might have a significant impact on pharmacokinetic and biodistribution profiles of the molecules. This off-target binding was subsequently confirmed by flow cytometry on live HEK293 cells transiently expressing these ‘off-target’ proteins identified in the primary screen.

[5] = molecular target: T5, rat VEGFR1 (soluble antigen of the KinExA and SPR affinity assays) (rat, UniProt P53767 23-758, limits assumed); experiment: KinExA, solution
T5 sequence (looked up): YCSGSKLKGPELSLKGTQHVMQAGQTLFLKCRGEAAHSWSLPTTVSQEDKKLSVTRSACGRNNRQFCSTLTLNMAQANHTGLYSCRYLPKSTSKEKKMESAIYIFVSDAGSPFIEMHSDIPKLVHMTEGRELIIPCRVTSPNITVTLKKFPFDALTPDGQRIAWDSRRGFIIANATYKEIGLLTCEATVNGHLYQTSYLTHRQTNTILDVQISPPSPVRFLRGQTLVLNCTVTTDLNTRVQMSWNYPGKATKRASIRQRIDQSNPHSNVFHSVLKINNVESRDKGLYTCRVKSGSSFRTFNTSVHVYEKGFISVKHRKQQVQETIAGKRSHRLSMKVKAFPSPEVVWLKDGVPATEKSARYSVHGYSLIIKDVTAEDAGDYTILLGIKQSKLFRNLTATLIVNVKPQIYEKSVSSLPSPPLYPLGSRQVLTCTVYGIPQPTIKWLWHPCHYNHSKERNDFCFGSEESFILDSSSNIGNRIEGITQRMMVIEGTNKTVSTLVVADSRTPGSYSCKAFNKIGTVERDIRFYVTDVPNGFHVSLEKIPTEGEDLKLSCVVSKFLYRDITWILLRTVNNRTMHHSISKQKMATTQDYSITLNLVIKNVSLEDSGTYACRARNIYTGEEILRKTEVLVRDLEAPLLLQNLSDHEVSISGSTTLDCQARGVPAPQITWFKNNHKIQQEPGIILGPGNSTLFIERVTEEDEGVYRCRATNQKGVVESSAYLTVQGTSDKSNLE
Protocol: (§1) Kinetic exclusion assay (KEA; KinExA) was used to analyze the binding of anti-VEGFR1 antibodies to human, mouse and cynomolgus monkeys VEGFR1. KEA is a fluorescence-based solution method, and it is described in detail in the literature (Darling and Brault, 2004). To measure the affinity of an interaction, a series of solutions with a fixed concentration of one interactant (A) and varying concentrations of another interactant (B) are prepared and allowed to reach equilibrium. After equilibration, the concentration of free A is determined by flowing the equilibrated mixture through a column packed with beads modified with reactant B. Free A binds to the beads and is then detected using a fluorescently labeled polyclonal antibody.
(§2) Briefly, fixed concentrations (300 pM, 60 pM, 12 pM, 2.4 or 0.5 pM) of Ab were used to prepare a serial dilution of the antigen (2 nM to 0.52 pM, or 800 pM to 5.37 fM). The complex titrations were incubated at RT to reach binding equilibrium for at least 2 days. After incubation, the samples were run on the KinExA3200 or KinExA4000 instrument to assess free antibody in the reaction. During these studies some of the data were rejected because the experiments failed or failed the acceptance criteria. For mouse VEGFR1 the 60 and 300 pM concentrations were rejected due to high titrant related NSB. The dissociation equilibrium constant, (KD), was determined using the n-curve analysis feature of the KinExA Pro software. This program uses nonlinear least-square regression analysis of the globally fitted data to a 1:1 binding model. (CI=confidence interval).

[6] = molecular target: human VEGFR1 (soluble antigen of the KinExA and SPR affinity assays) (human, UniProt P17948 27-758, limits assumed); experiment: KinExA, solution
Protocol: as §1, §2

human VEGFR1 (soluble antigen of the KinExA and SPR affinity assays), sequence (P17948 27-758 limits assumed): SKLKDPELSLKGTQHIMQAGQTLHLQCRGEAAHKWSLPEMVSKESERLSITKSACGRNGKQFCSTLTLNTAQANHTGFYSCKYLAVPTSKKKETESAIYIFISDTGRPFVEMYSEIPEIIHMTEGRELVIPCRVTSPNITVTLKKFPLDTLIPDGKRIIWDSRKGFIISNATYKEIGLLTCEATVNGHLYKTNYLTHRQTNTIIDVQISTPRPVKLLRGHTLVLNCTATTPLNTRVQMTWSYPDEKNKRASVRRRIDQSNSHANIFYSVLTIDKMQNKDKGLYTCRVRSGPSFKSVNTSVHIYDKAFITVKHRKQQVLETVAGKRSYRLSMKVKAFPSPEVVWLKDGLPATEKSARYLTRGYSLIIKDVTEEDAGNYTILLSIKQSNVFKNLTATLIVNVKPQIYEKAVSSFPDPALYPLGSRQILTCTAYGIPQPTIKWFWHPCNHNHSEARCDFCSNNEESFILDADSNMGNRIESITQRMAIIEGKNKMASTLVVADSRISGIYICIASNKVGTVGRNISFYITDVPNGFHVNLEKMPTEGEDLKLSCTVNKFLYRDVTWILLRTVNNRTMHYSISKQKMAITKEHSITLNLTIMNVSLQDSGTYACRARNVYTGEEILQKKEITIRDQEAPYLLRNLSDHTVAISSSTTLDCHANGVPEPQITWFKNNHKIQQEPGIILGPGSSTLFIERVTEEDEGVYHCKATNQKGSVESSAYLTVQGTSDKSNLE
T3 sequence (P17948 27-687 limits assumed): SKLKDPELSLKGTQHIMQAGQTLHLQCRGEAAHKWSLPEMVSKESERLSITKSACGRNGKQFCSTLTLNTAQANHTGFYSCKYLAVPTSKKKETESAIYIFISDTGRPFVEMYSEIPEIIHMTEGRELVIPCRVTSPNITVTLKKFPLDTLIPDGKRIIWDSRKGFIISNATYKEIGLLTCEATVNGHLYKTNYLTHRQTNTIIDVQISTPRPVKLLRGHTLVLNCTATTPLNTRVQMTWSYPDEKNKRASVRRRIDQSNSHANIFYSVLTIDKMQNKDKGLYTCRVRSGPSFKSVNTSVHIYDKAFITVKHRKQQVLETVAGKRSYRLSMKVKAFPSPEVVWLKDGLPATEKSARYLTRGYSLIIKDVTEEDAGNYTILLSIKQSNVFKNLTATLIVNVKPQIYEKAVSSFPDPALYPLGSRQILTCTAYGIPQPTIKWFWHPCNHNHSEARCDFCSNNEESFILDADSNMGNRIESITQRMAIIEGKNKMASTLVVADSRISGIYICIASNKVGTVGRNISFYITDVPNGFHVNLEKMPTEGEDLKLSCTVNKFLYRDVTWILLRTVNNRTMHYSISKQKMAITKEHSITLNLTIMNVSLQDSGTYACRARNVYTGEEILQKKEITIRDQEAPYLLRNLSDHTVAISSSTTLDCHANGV
T2 sequence (P17948 27-1338 limits assumed): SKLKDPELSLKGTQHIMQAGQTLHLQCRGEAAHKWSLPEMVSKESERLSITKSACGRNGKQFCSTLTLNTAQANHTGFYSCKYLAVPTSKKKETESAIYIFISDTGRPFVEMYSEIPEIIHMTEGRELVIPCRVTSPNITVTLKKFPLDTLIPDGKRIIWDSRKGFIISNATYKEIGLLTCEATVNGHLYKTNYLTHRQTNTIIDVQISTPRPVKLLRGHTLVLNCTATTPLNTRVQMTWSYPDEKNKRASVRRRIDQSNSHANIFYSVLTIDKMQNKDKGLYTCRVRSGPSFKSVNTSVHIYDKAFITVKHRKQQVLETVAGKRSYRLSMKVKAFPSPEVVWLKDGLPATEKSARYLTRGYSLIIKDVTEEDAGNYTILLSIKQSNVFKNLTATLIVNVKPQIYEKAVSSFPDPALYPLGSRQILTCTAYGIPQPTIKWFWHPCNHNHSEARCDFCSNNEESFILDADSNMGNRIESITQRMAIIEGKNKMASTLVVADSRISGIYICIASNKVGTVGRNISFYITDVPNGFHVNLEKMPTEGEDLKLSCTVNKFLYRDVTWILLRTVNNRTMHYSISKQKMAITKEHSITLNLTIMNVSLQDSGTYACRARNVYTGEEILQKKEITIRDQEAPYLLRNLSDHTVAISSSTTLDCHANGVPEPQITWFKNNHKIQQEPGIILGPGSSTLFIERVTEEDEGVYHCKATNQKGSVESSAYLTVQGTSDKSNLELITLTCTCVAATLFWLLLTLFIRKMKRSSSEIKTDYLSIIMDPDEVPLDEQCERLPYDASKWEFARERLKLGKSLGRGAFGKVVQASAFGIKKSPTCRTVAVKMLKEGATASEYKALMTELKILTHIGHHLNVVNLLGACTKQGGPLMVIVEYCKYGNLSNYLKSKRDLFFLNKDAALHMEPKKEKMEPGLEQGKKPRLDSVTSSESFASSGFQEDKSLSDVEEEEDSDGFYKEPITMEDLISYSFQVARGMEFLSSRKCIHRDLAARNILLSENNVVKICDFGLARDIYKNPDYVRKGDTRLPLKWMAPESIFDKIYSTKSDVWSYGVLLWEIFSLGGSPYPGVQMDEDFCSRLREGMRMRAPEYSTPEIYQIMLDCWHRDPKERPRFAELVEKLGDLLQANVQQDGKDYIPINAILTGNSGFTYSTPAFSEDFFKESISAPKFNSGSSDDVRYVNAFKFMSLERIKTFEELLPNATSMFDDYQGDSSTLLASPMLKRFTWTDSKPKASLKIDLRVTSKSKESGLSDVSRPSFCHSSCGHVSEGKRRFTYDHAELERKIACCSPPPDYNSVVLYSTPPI
T1 sequence (P35968 20-1356): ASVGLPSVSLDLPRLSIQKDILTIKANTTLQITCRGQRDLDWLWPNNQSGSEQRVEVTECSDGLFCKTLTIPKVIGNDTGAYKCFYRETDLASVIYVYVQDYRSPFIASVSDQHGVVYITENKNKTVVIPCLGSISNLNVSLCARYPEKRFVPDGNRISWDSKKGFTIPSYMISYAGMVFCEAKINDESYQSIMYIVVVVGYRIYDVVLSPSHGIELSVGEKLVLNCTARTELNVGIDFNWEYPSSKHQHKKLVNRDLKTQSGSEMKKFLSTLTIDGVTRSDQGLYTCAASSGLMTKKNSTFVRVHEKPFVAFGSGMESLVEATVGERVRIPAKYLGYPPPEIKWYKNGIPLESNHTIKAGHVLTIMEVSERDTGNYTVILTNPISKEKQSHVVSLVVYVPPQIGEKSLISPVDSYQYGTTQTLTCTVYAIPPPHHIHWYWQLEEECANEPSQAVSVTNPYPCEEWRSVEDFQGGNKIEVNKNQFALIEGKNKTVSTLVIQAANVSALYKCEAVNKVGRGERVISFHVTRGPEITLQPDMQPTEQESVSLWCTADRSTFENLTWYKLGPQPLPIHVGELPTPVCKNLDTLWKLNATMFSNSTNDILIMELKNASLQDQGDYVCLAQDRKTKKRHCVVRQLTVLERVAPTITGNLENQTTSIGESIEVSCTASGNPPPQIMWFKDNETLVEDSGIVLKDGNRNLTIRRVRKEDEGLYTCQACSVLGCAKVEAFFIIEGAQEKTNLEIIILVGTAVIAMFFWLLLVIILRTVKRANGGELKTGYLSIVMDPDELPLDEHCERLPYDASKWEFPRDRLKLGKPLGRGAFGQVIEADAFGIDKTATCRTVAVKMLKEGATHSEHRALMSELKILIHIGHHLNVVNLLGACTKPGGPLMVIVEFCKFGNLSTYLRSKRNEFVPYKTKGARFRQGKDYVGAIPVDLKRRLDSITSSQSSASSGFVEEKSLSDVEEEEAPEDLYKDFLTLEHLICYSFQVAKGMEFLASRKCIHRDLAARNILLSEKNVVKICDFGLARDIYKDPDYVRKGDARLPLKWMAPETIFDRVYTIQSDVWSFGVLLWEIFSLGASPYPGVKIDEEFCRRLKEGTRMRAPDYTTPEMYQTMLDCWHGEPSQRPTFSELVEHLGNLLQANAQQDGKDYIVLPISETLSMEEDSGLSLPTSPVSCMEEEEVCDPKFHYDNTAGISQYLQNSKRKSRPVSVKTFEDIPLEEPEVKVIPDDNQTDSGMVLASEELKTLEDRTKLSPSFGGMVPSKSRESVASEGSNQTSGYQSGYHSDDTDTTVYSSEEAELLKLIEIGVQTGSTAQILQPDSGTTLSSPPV

B1: VGFB71 (antibody, human IgG1, lambda, L234A L235A, V domains shown)
VH: EVQLLESGGGLVQPGGSLRLSCEASGFIFRDYNMNWVRQAPGKGLEWVSIITNDGSSTAYSDSVKGRFTISRDNSKNSLYLQMNSLRAEDTAIYYCVKVYYGMDDWGQGTTVTVSS
VL: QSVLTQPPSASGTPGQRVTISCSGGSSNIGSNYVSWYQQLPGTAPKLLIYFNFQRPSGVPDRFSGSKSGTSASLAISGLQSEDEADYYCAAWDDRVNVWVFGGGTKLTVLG
notes: human IgG1 (L234A/L235A/D265S)
binding result [1]: no binding (tested: 10 nM)

B2: VGFB54 (antibody, human IgG1, lambda, L234A L235A, V domains shown)
VH: EVQLLESGGGSVQPGGSLRLSCTASGFNFEDYGMNWVRQAPGKGLDWVSSINRNGDISTYHVDSVKGRFTISRDNSKNTLYLQMNSLRAEDTAIYYCTKNHDYHGMDVWGQGTTVTVSS
VL: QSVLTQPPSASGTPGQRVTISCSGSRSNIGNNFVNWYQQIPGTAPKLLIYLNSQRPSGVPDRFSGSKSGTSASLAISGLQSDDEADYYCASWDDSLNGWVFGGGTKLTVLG
notes: human IgG1 (L234A/L235A/D265S), lambda, 2H:2L; from OmniChicken
IC50 [2]: 0.198 nM | IC50 [3]: 0.0894 nM

B3: VGFB78 (antibody, human IgG1, lambda, L234A L235A, V domains shown)
VH: EVQLLESGGGLVQPGGSLRLSCAASSFTFYNYDMTWVRQAPGKGLEWVAGIGTSGTDMYYADSVKGRFTISRDNSKNTLYLQMNSLRAEDTAIYYCAKDYYYYGMDVWGLGTTVTVSS
VL: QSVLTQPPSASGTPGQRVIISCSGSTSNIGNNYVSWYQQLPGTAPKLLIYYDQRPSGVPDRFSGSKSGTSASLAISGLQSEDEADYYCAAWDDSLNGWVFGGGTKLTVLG
notes: as for B1
binding result [4]: binds

B4: VGFB82 (antibody, human IgG1, lambda, L234A L235A, V domains shown)
VH: EVQLLESGGGLVQPGGSLRLSCEASGFDFSTYAMNWVRQAPGKGLEWVATINSEGTITSHAPAVKGRFTISRDNSKNTAYVQMNSLRAEDSAVYYCSSTTGTTHGMDVWGRGTTVTVSS
VL: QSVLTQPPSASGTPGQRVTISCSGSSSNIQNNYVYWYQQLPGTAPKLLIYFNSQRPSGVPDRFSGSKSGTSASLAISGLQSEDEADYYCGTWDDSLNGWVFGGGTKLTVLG
notes: as for B1
Kd [5]: 0.224 nM | Kd [6]: 0.46 pM
